Broadly, the Kd is the equilibrium constant for the complex coming apart. Low readings indicate tighter binding, high ones weaker binding.

This test has as its target LAMP1_(distal)-Fc (human). The experiment in a line: SPR. (SPR reads the build-up and loss of mass on a sensor chip optically.)

Consider “GP1_(LASV)-Fc (from UniProt P08669 75-237) (Fc fusion)”, for which the Kd came out at 15 nM.

Source of the values: PMC5423696.
